According to the supplement of paper PMC7877785:
± gives the uncertainty stated by the source.

Assay: self-splicing fitness, log relative to wild type (ln ratio); higher = more splicing; Tetrahymena group I intron in knt gene, E. coli kanamycin selection, DiMSum; sequences stand for … in CUCUCU…GGAGGGAAAAGUUAUCAGGCAUGCACCUGGUAGCUAGUCUUUAAACCAAUAGAUUGCAUCGGUUUAAAAGGCAAGACCGUCAAAUUGCGGGAAAGGGGUCAACAGCCGUUCAGUACCAAGUCUCAGGGGAAACUUUGAGAUGGCCUUGCAAAGGGUAUGGUAAUAAGCUGACGGACAUGGUCCUAACCACGCAGCCAAGUCCUAAGUCAACAGAUCUUCUGUUGAUAUGGAUGCAGUUCACAGACUAAAUGUCGGUCGGGGAAGAUGUAUUCUUCUCAUAAGAUAUAGUCGGACCUCUCCUUAAUGGGAGCUAGCGGAUGAAGUGAUGCAACACUGGAGCCGCUGGGAACUAAUUUGUAUGCGAAAGUAUAUUGAUUAGUUUUGGAGUACUCGUGGUCG
In short: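 A randomised library covering all eight P1ex-region intron nucleotides was built with the intron in the knt kanamycin-resistance gene on pET-22b(+) and held in E. coli BL21(DE3). Cells were grown overnight at 37°C or 30°C on LB agar, with or without 25 μg/mL kanamycin, plus 100 μg/mL carbenicillin, 50 μM IPTG and 0.2% rhamnose, and pooled colonies were amplicon-sequenced on an Illumina HiSeq 2500. DiMSum fitness is the error-weighted combination of wild-type-normalised replicate fold changes, kanamycin versus none.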

| Sequence | self-splicing fitness (ln) (30 °C) | self-splicing fitness (ln) (37 °C) |
| --- | --- | --- |
| GUUUAGCAAUAUUACGUUAU | -2.88 ± 0.23 | -0.357 ± 0.16 |
| UAAAAGCAAUAUUACGAAGU | -2.95 ± 0.29 | -2.23 ± 0.21 |
| UAAAAGCAAUAUUACGAGUG | -0.615 ± 0.057 | 0.0674 ± 0.084 |
| UAAAAGCAAUAUUACGCAUA | -1.44 ± 0.088 | -0.782 ± 0.1 |
| UAAAAGCAAUAUUACGCCAG | -1.34 ± 0.12 | -0.458 ± 0.17 |
| UAAAAGCAAUAUUACGCCCU | -0.622 ± 0.095 | 0.457 ± 0.15 |
| UAAAAGCAAUAUUACGCCGG | -0.134 ± 0.11 | 0.0922 ± 0.14 |
| UAAAAGCAAUAUUACGCUUA | -1.53 ± 0.11 | -1.03 ± 0.12 |
| UAAAAGCAAUAUUACGGAGA | -2.31 ± 0.27 | -1.83 ± 0.27 |
| UAAAAGCAAUAUUACGGAGC | -4.1 ± 0.25 | -3.36 ± 0.28 |
| UAAAAGCAAUAUUACGGCAU | -0.376 ± 0.091 | -0.235 ± 0.12 |
| UAAAAGCAAUAUUACGGGAA | -2.63 ± 0.2 | -1.18 ± 0.12 |
| UAAAAGCAAUAUUACGGUGU | -3.4 ± 0.13 | -2.83 ± 0.15 |
| UAAAAGCAAUAUUACGUACC | -2.18 ± 0.25 | -0.361 ± 0.21 |
| UAAAAGCAAUAUUACGUAUU | -2.24 ± 0.14 | -1.88 ± 0.19 |
| UAAAAGCAAUAUUACGUCUA | -0.487 ± 0.068 | 0.337 ± 0.097 |
| UAAAAGCAAUAUUACGUCUG | -0.0205 ± 0.058 | 0.201 ± 0.075 |
| UAAAAGCAAUAUUACGUGCG | -0.348 ± 0.07 | -0.119 ± 0.09 |
| UAAAAGCAAUAUUACGUGGA | -2.94 ± 0.13 | -1.52 ± 0.1 |
| UAAAAGCAAUAUUACGUGGG | -3.67 ± 0.23 | -1.44 ± 0.13 |
| UAAAAGCAAUAUUACGUUAC | -3.71 ± 0.22 | -2.78 ± 0.21 |
| UAACAGCAAUAUUACGAAAU | -3.46 ± 0.14 | -2.52 ± 0.18 |
| UAACAGCAAUAUUACGACGA | 0.245 ± 0.069 | 0.319 ± 0.083 |
| UAACAGCAAUAUUACGAGAA | -2.22 ± 0.22 | -2.07 ± 0.23 |

| Sequence | self-splicing fitness (ln) (30 °C) | self-splicing fitness (ln) (37 °C) |
| --- | --- | --- |
| UAACAGCAAUAUUACGAGAG | -3.21 ± 0.18 | -2.46 ± 0.13 |
| UAACAGCAAUAUUACGAGGA | -3.13 ± 0.2 | -1.49 ± 0.14 |
| UAACAGCAAUAUUACGAUAU | -2.28 ± 0.18 | -1.28 ± 0.2 |
| UAACAGCAAUAUUACGCAUG | -1.43 ± 0.086 | -0.695 ± 0.099 |
| UAACAGCAAUAUUACGCCCU | -1.18 ± 0.08 | 0.471 ± 0.12 |
| UAACAGCAAUAUUACGCCUA | -0.308 ± 0.064 | 0.598 ± 0.083 |
| UAACAGCAAUAUUACGCCUG | -0.264 ± 0.085 | 0.182 ± 0.11 |
| UAACAGCAAUAUUACGCGAA | -1.9 ± 0.11 | -0.949 ± 0.11 |
| UAACAGCAAUAUUACGCUAU | -2.86 ± 0.12 | -1.82 ± 0.11 |
| UAACAGCAAUAUUACGCUGA | -3.33 ± 0.2 | -1.61 ± 0.1 |
| UAACAGCAAUAUUACGGAAA | -2.91 ± 0.23 | -1.11 ± 0.14 |
| UAACAGCAAUAUUACGGAGG | -3.85 ± 0.16 | -1.87 ± 0.091 |
| UAACAGCAAUAUUACGGCAG | -0.752 ± 0.077 | -0.814 ± 0.084 |
| UAACAGCAAUAUUACGGGCA | -0.826 ± 0.085 | -0.324 ± 0.078 |
| UAACAGCAAUAUUACGGGGA | -2.36 ± 0.15 | -2.1 ± 0.097 |
| UAACAGCAAUAUUACGGUGU | -2.93 ± 0.11 | -2.01 ± 0.12 |
| UAACAGCAAUAUUACGUCAC | -2.97 ± 0.15 | -1.82 ± 0.16 |
| UAACAGCAAUAUUACGUCAU | -3.81 ± 0.16 | -1.74 ± 0.15 |
| UAACAGCAAUAUUACGUCCA | -0.357 ± 0.091 | -0.0151 ± 0.12 |
| UAACAGCAAUAUUACGUUGA | -2.95 ± 0.14 | -1.34 ± 0.1 |
| UAACAGCAAUAUUACGUUUA | -0.893 ± 0.063 | -0.563 ± 0.071 |
| UAACAGCAAUAUUACGUUUC | -4.16 ± 0.26 | -2.44 ± 0.23 |
| UAAGAGCAAUAUUACGAAUG | -2.32 ± 0.17 | -1.52 ± 0.25 |
| UAAGAGCAAUAUUACGACUG | -2 ± 0.14 | -0.767 ± 0.15 |

| Sequence | self-splicing fitness (ln) (30 °C) | self-splicing fitness (ln) (37 °C) |
| --- | --- | --- |
| UAAGAGCAAUAUUACGAGAU | -3.76 ± 0.33 | -2.32 ± 0.31 |
| UAAGAGCAAUAUUACGAGUC | -3.17 ± 0.49 |  |
| UAAGAGCAAUAUUACGAUAC | -3.55 ± 0.26 | -3.09 ± 0.4 |
| UAAGAGCAAUAUUACGCAUU | -2.87 ± 0.22 | -2.32 ± 0.26 |
| UAAGAGCAAUAUUACGCUCA | -2.37 ± 0.23 | -1.54 ± 0.18 |
| UAAGAGCAAUAUUACGGAUG | -2.57 ± 0.35 | -2.59 ± 0.49 |
| UAAGAGCAAUAUUACGGCGG | -2.73 ± 0.22 | -1.62 ± 0.22 |
| UAAGAGCAAUAUUACGGGUG | -3.49 ± 0.18 | -1.06 ± 0.13 |
| UAAGAGCAAUAUUACGGUAC |  | -2.25 ± 0.41 |
| UAAGAGCAAUAUUACGGUAU | -3.87 ± 0.23 | -2.27 ± 0.18 |
| UAAGAGCAAUAUUACGGUUU | -3.48 ± 0.24 | -1.85 ± 0.23 |
| UAAGAGCAAUAUUACGUCCG | -3.27 ± 0.41 |  |
| UAAGAGCAAUAUUACGUGCC | -3.13 ± 0.15 | -3.48 ± 0.34 |
| UAAGAGCAAUAUUACGUGGG | -3.82 ± 0.42 | -2.68 ± 0.27 |
| UAAUAGCAAUAUUACGAAAG | -1.92 ± 0.19 | -2.03 ± 0.31 |
| UAAUAGCAAUAUUACGACAG | -2.3 ± 0.19 | -0.262 ± 0.17 |
| UAAUAGCAAUAUUACGACCA | -0.451 ± 0.2 | 0.216 ± 0.31 |
| UAAUAGCAAUAUUACGACCU | -1.69 ± 0.15 | -0.4 ± 0.15 |
| UAAUAGCAAUAUUACGAGCU | -3.02 ± 0.29 | -1.79 ± 0.3 |
| UAAUAGCAAUAUUACGCAAA | -2.03 ± 0.18 | -1.27 ± 0.15 |
| UAAUAGCAAUAUUACGCGGG | -3.18 ± 0.21 | -1.65 ± 0.2 |
| UAAUAGCAAUAUUACGCUAA | -2.11 ± 0.27 | -1.39 ± 0.19 |
| UAAUAGCAAUAUUACGGAAA |  | -2.44 ± 0.26 |
| UAAUAGCAAUAUUACGGAUA | -1.97 ± 0.17 | -1.83 ± 0.2 |

| Sequence | self-splicing fitness (ln) (30 °C) | self-splicing fitness (ln) (37 °C) |
| --- | --- | --- |
| UAAUAGCAAUAUUACGGGCA | -0.899 ± 0.2 | -0.61 ± 0.19 |
| UAAUAGCAAUAUUACGGUAC | -3.69 ± 0.43 | -2.37 ± 0.37 |
| UAAUAGCAAUAUUACGGUUA | -0.888 ± 0.11 | -0.925 ± 0.091 |
| UAAUAGCAAUAUUACGUCCG | -0.913 ± 0.23 | -0.835 ± 0.2 |
| UAAUAGCAAUAUUACGUCUU | -3.1 ± 0.17 | -1.1 ± 0.11 |
| UAAUAGCAAUAUUACGUGCU | -1.98 ± 0.1 | -0.994 ± 0.1 |
| UAAUAGCAAUAUUACGUUAG | -1.84 ± 0.094 | -1.13 ± 0.12 |
| UACAAGCAAUAUUACGAACA | -1.14 ± 0.11 | -0.734 ± 0.097 |
| UACAAGCAAUAUUACGAAGC | -3.39 ± 0.23 | -2.74 ± 0.26 |
| UACAAGCAAUAUUACGAAUA | -1.56 ± 0.087 | -0.567 ± 0.1 |
| UACAAGCAAUAUUACGACAG | -1.15 ± 0.092 | -0.241 ± 0.11 |
| UACAAGCAAUAUUACGACGC | -2.93 ± 0.25 | -1.67 ± 0.23 |
| UACAAGCAAUAUUACGACUG | -0.079 ± 0.063 | 0.278 ± 0.092 |
| UACAAGCAAUAUUACGAGCA | -0.289 ± 0.067 | -0.0424 ± 0.075 |
| UACAAGCAAUAUUACGAGUU | -2.14 ± 0.069 | -0.96 ± 0.074 |
| UACAAGCAAUAUUACGCCAU | -3.15 ± 0.17 | -2.62 ± 0.22 |
| UACAAGCAAUAUUACGCCCC | -2.04 ± 0.49 |  |
| UACAAGCAAUAUUACGCGUC | -2.06 ± 0.1 | -1.23 ± 0.14 |
| UACAAGCAAUAUUACGCUCA | -0.545 ± 0.087 | -0.0026 ± 0.12 |
| UACAAGCAAUAUUACGCUGA | -2.32 ± 0.13 | -1.78 ± 0.13 |
| UACAAGCAAUAUUACGGAAA | -2.07 ± 0.24 | -1.99 ± 0.27 |
| UACAAGCAAUAUUACGGCAU | -1.49 ± 0.068 | -0.705 ± 0.072 |
| UACAAGCAAUAUUACGGCCC | -1.69 ± 0.31 | -1.35 ± 0.44 |
| UACAAGCAAUAUUACGGCCU | -1.09 ± 0.094 | -0.547 ± 0.13 |
